Key:
[1] = target: mouse IL-2 receptor βƔc heterodimer (mouse)
[2] = target: IL-2Rβγc (species not stated, Figure E3d) (not stated (human and mouse receptors made)) (UniProt P14784); assay: BLI
[3] = target: human IL-2 receptor βƔc heterodimer (human) (UniProt P14784)
[4] = target: mouse IL-2Rβ ectodomain, biotinylated (mouse); assay: SPR
[5] = target: human IL-2Rβ, biotinylated (human) (UniProt P14784); assay: SPR
[6] = target: mouse IL-2 receptor βƔc heterodimer (mouse); assay: SPR
[7] = target: human IL-2 receptor βƔc heterodimer (human) (UniProt P14784); assay: SPR

## Neoleukin-2/15 (designed binder)
[1]
  EC50 of STAT5 phosphorylation in IL-2Rα- mouse primary T cells: 130 pM
[2]
  Kd: 6.9 nM
[3]
  EC50 of STAT5 phosphorylation in IL-2Rα- (CD25-) human YT-1 NK cells: 0.05 nM
[4]
  Kd: 16.1 nM
[5]
  Kd: 11.2 nM
[6]
  Kd: 38.4 nM
[7]
  Kd: 18.8 nM

## Super-2 / Superkine (from UniProt P60568 21-153) (ligand)
[4]
  Kd: 214 nM
[6]
  Kd: 312 nM
[7]
  Kd: 301 nM

## human interleukin-2 (from UniProt P60568 21-153) (ligand)
[4]
  Kd: 8110 nM
[6]
  Kd: 492 nM

B1: mouse interleukin-2 (ligand)
chain: APTSSSTSSSTAEAQQQQQQQQQQQQHLEQLLMDLQELLSRMENYRNLKLPRMLTFKFYLPKQATELKDLQCLEDELGPLRHVLDLTQSKSFQLEDAENFISNIRVTVVKLKGSDNTFECQFDDESATVVDFLRRWIAFCQSIISTSPQ
[4]
  Kd: 1500 nM

Source: paper PMC6521699
